Source: the nanobody polyreactivity screen of Harvey et al. (2022)

Test: yeast display, Sf9 membrane polyspecificity reagent, FACS + sequencing; frameworks hold sequencing errors
Method in brief: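 Nanobodies from a synthetic yeast display library (Saccharomyces cerevisiae BJ5465), induced 36–48 hours with galactose, were stained 1 hour at 4 °C with 10% biotinylated, detergent-solubilized Sf9 membrane reagent, enriched on streptavidin microbeads, then FACS-sorted. Anti-HA (expression) and streptavidin (reagent binding) fluorescence set low and high (top ~1%) gates. Polyreactivity labels come from the gate of origin. Genes were colony-PCR amplified, MiSeq 2 × 250 sequenced and filtered by CDR length.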

| Sequence | polyreactivity (PSR sort gate) |
| --- | --- |
| QVQLVETGGGLVQAGGSLRLSCAASGSIFVRNAMGWYRQAPGKERELVAAINRDGGRTYYADSVKGRFTISRDNAKNTVYLQMNSLKPEDTAVYYCNAGGVSFEYGYWGQGTQVTVSS | high polyreactivity |
| QVQLVETGGGLVQAGGSLRLSCAASGSIFYGYAMGWYSQSHGQEREFVAAITFSATSTYYADSVKGRFTISRDNAKNPVYLQMNSLKPEDTAVYYCAAVIGDWQYQYYYWGQGTLVTVSS | low polyreactivity |
| QVQLVETGGGLVQAGGSLRLSCAASGSILYYKPMGWYRQAPGKERELVASISLTGGSTTYADSVKGRFTISRDNAKNTVYLQMNSLKPEDTAVYYCNATQYPAADRSTNNYGGGFDSWGQGTQVTVSS | low polyreactivity |
| QVQLVETGGGLVQAGGSLRLSCAASGSISGFIDMGWYRQAPGKERELVAAISYSGGRTYYADSVKGLFTISRDNAKNTVFLQMNSLKPEDTAVYYCAADKFIYSKYTVIRDDYWGQGTQVTVSS | high polyreactivity |
| QVQLVETGGGLVQAGGSLRLSCAASGSTFSRNAMGWYRQAPGKEREFVAAISWSGSSTYYADSVKGRFTISRDNEKNTVYLQMNSLKPEDTAVYYCAARETWYPYYWMGYWGQGAQVTVSS | high polyreactivity |
| QVQLVETGGGLVQAGGSLRLSCAASGSTFWRNSMGWYRHAPGKEREFVASISWSGGGTYYADSVKGRFTISRDNAKNTVYLQMNILKPEDTAVYYCAATPYWSYWYGNGDYDYWGQGTQVTVSS | low polyreactivity |
| QVQLVETGGGLVQAGGSLRLSCAASGSTFYNYAMGWYRQAPGKEREFVAAISWGGGSTRYADSVKGRFTISRDYAKNTVYLQMNSLKPEDTAVYYCAARYPHYDYYYWGQGTQVTVSS | high polyreactivity |
| QVQLVETGGGLVQAGGSLRLSCAASRSIFLYYAMGWYRQAPGKERELVAAISYSGSGTYADSVKGRFTISRDNAKNTVYLEMNSLKPEDTAVYYCNVDYGSYSYDYWGQGTQVTVSS | low polyreactivity |
| QVQLVETGGGLVQAGGSLRLSCADSGSICEQYTMGWYRQAPGKERELVAGSSSGGITNYADSVKGRFTISRDNAKNTVYLQMNSLKPEDTAVYYCAADNWYLAEYDYWGEGTQVTVSS | low polyreactivity |
| QVQLVETGGGLVQAGGSLRLSCAPSGLSIGYYAMGWYRQAPGKEREFVAAITWNGGSTYADSVKGLFTISRDNAKNTVYLQMNSLKPEDTAVYYCAADLSYWDDFDYWGQGTQVTVSS | low polyreactivity |
| QVQLVETGGGLVQAGGSLRLSCAPSGRIFTYYGMGWYRQPPGKERELVAAITRSGGSTRYADSVKGRFTISRDNAKNTVYLQMNSLKPEDTAVYYCNAGGYWRYDYWGQGTQVTVSS | high polyreactivity |
| QVQLVETGGGLVQAGGSLRLSCAPSGRILYGYAMGWYRQAPGKERELVASITWSGGSTYADSVKGRFTISRDNAKNTVYLQMNSLKPEDTAVYFCATRRGPKWQWLTYGYWGQGTQVTVSS | low polyreactivity |
| QVQLVETGGGLVQAGGSLRLSCAPSGSIYYINAMGWYRQAPGKERELVAAIRSGGSTNYADSVKGLFTISRDNAKNTVYLQMNSLKPEDTAVYYCNARSRSYVPYYYWGQGTQVTVSS | high polyreactivity |
| QVQLVETGGGLVQAGGSLRLSSAASGFIFGTYTMGWYRQAPGKERELVAAISTSSGSTYYADSVKGRFTISRDNAKNTVYLQMNSLKPEDTAVYYCAAPTRSYGTPPYDYWGQGTQVTVSS | low polyreactivity |
| QVQLVETGGGLVQAGGSLRLSSAASGSTFAWYAMGWYRQAPGKEREFVAAIDQDDDSTYYADSVKGRFTISRDNAKNTVYLQMKSLKPEDTAVYYCAASSPWEQSNDQFYYWGQGTQVTVSS | low polyreactivity |
| QVQLVETGGGLVQAGGSLRVSCAASGRTFVGNAMGWYRQPPGKERELVAAISYSGDDTYYADSVKGRFTISRDNAKNTVYLQMNSLKPVDTAVYYCAAEWTAENAGIVLELEYWGQGTQVTVSS | high polyreactivity |
| QVQLVETGGGLVQAGGTLRLSCAASGRIFLTNAMGWYRQAPGKERELVATITASGGTTYYADSVKGRFTISRDNAKITVYLQMNSLKPDDTAVYYCAKRYYLRGFGRYYYCGQGTQVTVSS | high polyreactivity |
| QVQLVETGGGLVQARGSLRLSCAASGRTFYKYAMGWYIQAPGKERELVAAISSDGTTYYADSVKGRFTISRDNAKNTVYLQMNRLKPVDTAVYYFAADPPPPFLYVSVQEYDYWGQGTQVTVSS | low polyreactivity |
| QVQLVETGGGLVQARGSLRLSSAASGFIFDENAMGWYRQAPGKERELVAAITSGGGSTYYADSVKGRFTISRDNAKNTVYFQMNSQNPEDTAVYYCNAVPTQHDEFDYWGQGTQVTVSS | low polyreactivity |
| QVQLVETGGRLVQAGGSLRVSCAASGITFECYAMGWSRQATGKERELVAAIRSSGTSTYYADSVKGRFTISRDNAKNTVYLQMMSLKPEDTAVYYCNLARSSSRYDYWGQGTQVTVSS | low polyreactivity |
| QVQLVETGPGLVQAGGSLRLSCAASGSIFGTYAMGWYRQAPGKERELVAAITGNGGRTYYADSVKGRFTISRDNAKNTVFLQMNSLKPEDTAVYYCAKATSRRGFYDWGPGTQVTVSS | high polyreactivity |

| Sequence | polyreactivity (PSR sort gate) |
| --- | --- |
| QVQLVETGVGLVQAGGSLRLSCAASGRIFLVYAMGWYRQAPGKERELVAAISWRGGRTYYADSVKGRFTISRDNAKNTVYLQMNSLIPEDTAVYYCAAASKYSQFEYDYWGQGTQVTVSS | high polyreactivity |
| QVQLVETGVGLVQAGGSLRLSCAASGSTFPGYAMGWYRQAPGKERELVAAISASGGSTYYADSVKGRFTISRDIAKNTVYLQMNSLKPEDTEVYYCAKVLSRGASAHDYWGLGTQVTVSS | low polyreactivity |
| QVQLVETRGGLVQAGGSLRLSCAASGSIFLQNAMGWYRQAPGKERELVAAITNGGSTNYADSVKGRFTISRDNAKNTVYLQMNSLKPEDTAVYYCAAYPLYTGSYDRGGYWGQGTQVTVSS | low polyreactivity |
| QVQLVETVGGLDQAGGSLLLSCAASGRIFWENALGWYRQAPGKERELVAAISDSVVITYYADSVKGRFTISRDNAKNTVYLQMNSLKPEDTAVYDCAADKRGSVYLSSFWMDYWGQGTQVTVSS | low polyreactivity |
| QVQLVEYGGGLVQAGGSLRLSCAASGRIFGYYTMGWYRQAPRKERELVAAITSSGGRTYYADSVKGRFTISRDNAKNTVYLQMNSLKPEDTAVYYCNKVTFGYAYWRYDGYDYWGQGTQVTVSS | low polyreactivity |
| QVQLVKSGGGLVQAGGSLRLSCAASGRIFVGYVMGWYIQAPGKARELVAAIDSGRRTNYADSVKGRFTISRDNAKNTVYLQINSLKPEDTAVYYCNREAAHGSLRWTEMEYWGQGTQVTVSS | low polyreactivity |
| QVQLVQSGGGIVQEGGSLRLSCAASGSTFYRNTMGWYRQAPGKERELVAAISRTGASTHYADSVKGRFTISRDNAKNTVYFQMNSLKPEDTAVYYCNAVPAIGKYYGGGYWGQGTQVTVSS | high polyreactivity |
| QVQLVQSGGGLVQAGGRLRLSCAASGRIFGFYAMGWYRQAPGKERELVAAITSTGRTYYADSVKGRFTISRDNAKNTVYLQMNSLKPEDTAVYYCAAGYGRADSGWVRMNYWGQGTQVTVSS | high polyreactivity |
| QVQLVQSGGGLVQAGGSLRLSCAASGITFIHNAMGWYRQAPGKERELVAAITTSDGSTYYADSVKGRFTISRDNAKYTVYFQMNSLTPEDTAVYYCAARGRHSGYYSFPYYYWGQGTQVTVSS | low polyreactivity |
| QVQLVQSGGGLVQAGGSLRLSCAASGRTIWANAMGWYRQAPGKESELVAAITTSGGSTNYADSVKGRFTISRDNAKNTVYLQMNSLKPEDTAVYYCNADPTYHVVNGVGYWGQGTQVTVSS | low polyreactivity |
| QVQLVQSGGGLVQAGGSLRLSCAASGRTIYSKAMGWYRQAPGKERELVAAITSTDDSTYYADSVKGRFTISRDNAKNTVYLQMNSLKPEDTAVYYCNTDGLIAIRGLWWVEYDYWGQGTQVTVSS | low polyreactivity |
| QVQLVQSGGGLVQAGGSLRLSCAASGRTLWSYVMGWYRQAPGKERELVAAITSGGTTYYADSVKGRFTISRDNAKNTVYLQMNSLKPEDTAVYYCNVYTKFVYAYDYWGQGTQVTVSS | high polyreactivity |
| QVQLVQSGGGLVQAGGSLRLSCAASGSIFAVYGMGWNRQAPGKERELVASISTGVSTNYADSVKGRFTISRDNAKNTVYLQRHSLKPEDTAVYYCAKTIYKSRVSYGSWGQGTQVTVSS | low polyreactivity |
| QVQLVQSGGGLVQAGGSLRLSCAPSGSISTPYTMGWYRQAPGKERELVAAISWIGDTTSYADSVKGRYTISRDNAKNTVYLQMKSLKPEDTAVYYCDADYLWYNYAGQVDQDYDYWGQGTQVTVSS | low polyreactivity |
| QVQLVQSGGGLVQAGGSLRLSSAASGRIFATNAMGWYRQAPGKERELVAAITTSGGSTYYADSVKGRFTISRDNAKNTVYLHLNSLKPEDTAVYYCAARRGPNSYRWRMGYWGHGTQVTVSS | high polyreactivity |
| QVQLVQSGGGLVQAGGSLSLSCAASVFIFYYYDMGWYIQAPGKERELVAAISGRDGSTYYADSVKGRFTISRDNAKNTVYLQMNSLKPEDTAVYYCAAANRSRSIGSQYGYWGQGTQVTVSS | high polyreactivity |
| QVQLVQSGRGLVHAGCSLRLSCAASGRIYAGNAMGLYRQPPGKERELFATITSGGSTYYADSVKGRFTISRDNAKNTVYLQMNSLKPEDTAVYYCNAVNYWVKSRFSLTWEFAVVYWGQGTQVTVSS | low polyreactivity |
| QVQLVQSRGGLVQAGGSLRISCAASGRIFNPNAMRWDRQAPVKQRELVAAITRGGSTNYADSVKGRLTISRDNAKNTVYLQMISLQPEVSAVLYCAADFKTWYCDFDYCGQGTQVTVSS | high polyreactivity |
| QVQLVQSRGVLVQAGGSLRLSCAASGSIFKYNAMGWYRQAPGKERELVAAITYSGGSTYYADSVKGRFTISRDNAKNTVYLQMNSLKPEDTAVYYCNAYRRFSAFDYWGQGTQVTVSS | high polyreactivity |
| QVQLVSGGGLVQAGGSLRLSCAASGRIFVSYAMGWYRQAPGKERELVADISSDGSTNYADSVKGRFTISRDNAKNTVYLQMNSLKPEDTAVYYCAVEVVRVYRYDYWGQGTQVTVSS | low polyreactivity |
